Data on 1 molecule can be found in patent US20250257130A1 (NONA BIOSCIENCES SUZHOU, published 2025).

For assay [1], the target named is T1, cynomolgus ROR1 on CHO-K1-cynoROR1 cells (cynomolgus monkey, UniProt A0A2K5WTX7 30-937).
T1 construct: whole, on cells
As to the kind of experiment: flow cytometry, CHO-K1-cynoROR1 cells. How it is done: (§1) In brief, anti-ROR1 antibodies were serially diluted in staining buffer (PBS containing 2% FBS). Antibody solution was incubated with 1×10⁵ cells at 4° C. for 1 hour. […] After 1-hour incubation at 4° C., cells were washed twice with staining buffer and subjected to flow cytometry. PR000374 (Bench marker 1) and non-relevant IgG isotype control (Crownbio) were used as positive and negative controls, respectively.

In assay [2] the target is T2, hu-ROR2-ECD-his (Acrobiosystems RO2-H52E5) (human, UniProt Q01974 34-403).
T2 construct: extracellular domain; bought protein; also called Human ROR2 his-tagged protein; Human ROR2, His Tag
T2 sequence (Q01974 34-403): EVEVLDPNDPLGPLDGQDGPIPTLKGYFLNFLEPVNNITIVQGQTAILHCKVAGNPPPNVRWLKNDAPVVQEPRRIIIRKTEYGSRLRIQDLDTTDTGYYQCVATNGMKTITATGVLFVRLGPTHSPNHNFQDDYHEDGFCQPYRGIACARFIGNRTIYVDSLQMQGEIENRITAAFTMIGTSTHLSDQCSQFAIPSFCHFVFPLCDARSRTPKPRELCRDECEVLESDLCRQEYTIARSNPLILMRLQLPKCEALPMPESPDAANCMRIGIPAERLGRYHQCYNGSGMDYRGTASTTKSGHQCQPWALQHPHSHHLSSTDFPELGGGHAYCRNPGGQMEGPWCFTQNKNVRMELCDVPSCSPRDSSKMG
The assay can be described thus: ELISA, plate coated with hu-ROR2-his at 1 µg/mL. How it is done: 1 μg/mL hu-ROR2-ECD-his (Acrobiocystems, RO2-H52E5) was added to the 96-well plate, 100 μL each well, incubated at 4° C. overnight, washing the plates with 1×PBST 3 times, 300 ul/well, blocking the plates with 2% BSA in 1×PBST, 200 ul/well at 37° C. for 1 hour, anti-ROR1 antibodies were serially diluted in staining buffer (PBS containing 2% BSA). Antibody solution was added to the plate and incubates at 37° C. for 1 hour, washing the plates with 1×PBST 3 times, 300 ul/well, adding secondary antibody 100 ul/well and incubate at 37° C. for 1 hour, washing the plates with 1×PBST 3 times, 300 ul/well and then add 100 ul/well TMB for about 5 min, stop the reaction by adding 100 ul/well 2M H₂SO₄, read the plates with Molecular device spectra max plus384 at 450 nm and 570 nm.

Assay [3] concerns the target T3, Human ROR1-ECD-his (Acro Biosystems RO1-H522y) (human, UniProt Q01973 30-406).
T3 construct: extracellular domain; bought protein; also called hROR1-ECD-his; hu-ROR1-ECD-his
As to the kind of experiment: BLI, ROR1-His on HIS1K sensor, antibody in solution. How it is done:
In the example, binding kinetics of anti-ROR1 antibodies to soluble ROR1 protein were analyzed by using Bio-Layer Interferometry (BLI) analysis on Fortebio Octet Red384 instrument (Fortebio).
In BLI analysis, recombinant anti-ROR1 antibodies was serially diluted with 10× kinetics buffer (Fortebio). Human ROR1-His proteins were diluted to 20 nM. Then the diluted antibodies, ROR1 proteins and regeneration buffer (10 mM glycine HCl pH 1.5) were added to 96-well plates (Greiner). Rate constants for association and dissociation were measured using HIS1K sensor (Fortebio). The sensor surface was regenerated after each binding experiment with regeneration buffer. The traces were processed using Octet Data Analysis Software (version 11.0, Pall ForteBio, CA, USA).
For orientation: BLI is a label-free optical method that tracks binding on a fibre tip over time.

Assay [4] deals with T3, Human ROR1-ECD-his (Acro Biosystems …). As to the kind of experiment: ELISA, coated hu-ROR1-ECD-his. How it is done:
Binding of recombinant anti-ROR1 antibodies to hu-ROR1-ECD-his was tested by ELISA. In brief, 1 μg/mL hu-ROR1-ECD-his was added to the 96-well plate, 100 μL each well, incubated at 4° C. overnight, washing the plates with 1×PBST 3 times, 300 ul/well, blocking the plates with 2% BSA in 1×PBST, 200 ul/well at 37° C. for 1 hour, anti-ROR1 antibodies were serially diluted in staining buffer (PBS containing 2% BSA). Antibody solution was added to the plate and incubates at 37° C. for 1 hour, washing the plates with 1×PBST 3 times, 300 ul/well, adding secondary antibody 100 ul/well and incubate at 37° C. for 1 hour, washing the plates with 1×PBST 3 times, 300 ul/well and then add 100 ul/well TMB for about 5 min, stop the reaction by adding 100 ul/well 2M H₂SO₄, read the plates with Molecular device spectra max plus384 at 450 nm and 570 nm.
A general note: ELISA stands for enzyme-linked immunosorbent assay.

In assay [5] the target is T4, human ROR1 on cells (HEK293T-hROR1, PANC-1, A549) (human, UniProt Q01973 30-937).
T4 construct: whole, on cells; one molecule for the three cell lines; also called huROR1; cell surface ROR1
T4 sequence (Q01973 30-937): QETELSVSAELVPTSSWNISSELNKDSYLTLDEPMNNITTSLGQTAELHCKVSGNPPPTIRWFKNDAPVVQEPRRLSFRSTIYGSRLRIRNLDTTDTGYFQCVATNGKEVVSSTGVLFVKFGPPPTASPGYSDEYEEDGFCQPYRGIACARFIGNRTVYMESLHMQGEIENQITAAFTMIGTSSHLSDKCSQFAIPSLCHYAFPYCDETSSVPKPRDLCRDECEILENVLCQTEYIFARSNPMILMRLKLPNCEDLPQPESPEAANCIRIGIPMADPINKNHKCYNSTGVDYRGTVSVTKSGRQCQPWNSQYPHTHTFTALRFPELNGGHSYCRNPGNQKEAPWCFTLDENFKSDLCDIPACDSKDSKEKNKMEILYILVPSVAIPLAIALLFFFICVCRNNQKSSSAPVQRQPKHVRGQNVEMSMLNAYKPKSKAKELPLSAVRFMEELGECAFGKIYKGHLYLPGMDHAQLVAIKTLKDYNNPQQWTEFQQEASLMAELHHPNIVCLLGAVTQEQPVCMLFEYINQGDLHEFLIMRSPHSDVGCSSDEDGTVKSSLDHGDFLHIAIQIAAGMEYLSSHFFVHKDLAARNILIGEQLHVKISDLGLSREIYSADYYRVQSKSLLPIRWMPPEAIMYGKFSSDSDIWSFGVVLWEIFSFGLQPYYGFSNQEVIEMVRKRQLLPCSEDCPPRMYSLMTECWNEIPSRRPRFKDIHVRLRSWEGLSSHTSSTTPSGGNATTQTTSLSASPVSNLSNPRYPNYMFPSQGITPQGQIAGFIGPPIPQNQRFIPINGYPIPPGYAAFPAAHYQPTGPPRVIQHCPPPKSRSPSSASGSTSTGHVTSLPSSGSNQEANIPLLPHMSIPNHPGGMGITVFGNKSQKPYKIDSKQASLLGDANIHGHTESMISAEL
The assay can be described thus: flow cytometry, HEK293T-hROR1 cells; HEK293T-hROR1 cells (ROR1 overexpressed), FACS: binds. The protocol:
as §1
In general terms: In flow cytometry, cells or beads pass a laser one at a time.

T3 sequence (Q01973 30-406): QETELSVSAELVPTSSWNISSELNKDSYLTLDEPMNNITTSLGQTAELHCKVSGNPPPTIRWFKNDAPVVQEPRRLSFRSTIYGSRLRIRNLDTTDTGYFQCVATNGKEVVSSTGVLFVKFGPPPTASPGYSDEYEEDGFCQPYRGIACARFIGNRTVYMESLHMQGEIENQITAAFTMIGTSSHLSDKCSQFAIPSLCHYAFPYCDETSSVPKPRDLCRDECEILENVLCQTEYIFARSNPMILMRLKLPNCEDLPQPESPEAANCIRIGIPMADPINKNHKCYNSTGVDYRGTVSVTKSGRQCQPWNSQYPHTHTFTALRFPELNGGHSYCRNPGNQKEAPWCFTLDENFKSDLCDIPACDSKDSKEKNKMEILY

B1: PR303189 (antibody, human IgG1, V domains shown)
VH: EVQLVESGGGLVKPGGSLRLSCAASGFNLSDSYMSWIRQAPGKGLEWVSCISSSGSTIYYADSVKGRFTVSRDNAKNSLYLQMNHLRAEDTALYYCARDCVIGIRDDSDIWGQGTMVTVSS
notes: HCAb (heavy chain-only, human IgG1 Fc), no light chain
Take B1: in assay [1], the EC50 – broadly, the concentration that produces a half-maximal response – is 7.53 µg/mL and the “MAX(MFI)” value was 5.3e+06 MFI. In assay [2], the binding result was “no binding (tested: about 15 µg/ml)”. Also, in assay [3], binding was characterised by a dissociation constant (Kd) of 0.623 nM, the koff (commonly the first-order rate constant of dissociation) came out at 0.00403 s⁻¹ and the kon (commonly the second-order rate constant of association) amounted to 6.46e+06 M⁻¹ s⁻¹. Also, the EC50 in assay [4] came to 0.002 µg/mL. Moreover, in assay [5], the EC50 is 0.085 µg/mL.
